Assay results reported in the nanobody polyreactivity screen of Harvey et al. (2022).

Test: yeast display, Sf9 membrane polyspecificity reagent, FACS + sequencing; frameworks hold sequencing errors
Procedure, shortened: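 Galactose-induced (36–48 hours) yeast carrying a synthetic nanobody display library were exposed to 10% biotinylated, detergent-solubilized Sf9 membrane reagent at 4 °C for 1 hour. FACS followed streptavidin microbead enrichment, using low and high (top ~1%) gates for expression (anti-HA) and reagent binding (streptavidin). Colony PCR, MiSeq 2 × 250 sequencing and CDR-length filtering followed. Labels for polyreactivity reflect the gate of origin.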

Sequence	polyreactivity (PSR sort gate)
QVQLVESGGGLVQAGGSLRLSCAASGSIYRYAMGWYRQAPGKERELVAAINFNGGRTYYADSVKGRFTISRDNAKNTVYLQMNSLKPEDTAVYYCAAVRSSNQGGFDYWGHGTQVTVSS	high polyreactivity
QVQLVESGGGLVQAGGSLRLSCAASGRTFGRYAMGWYRQAPGKERELVAAITRSGGSTNYADSVKGRFTISRDNAKNTVYLQMNSLKPEDTAVYYCARRGYSVRTPEGYYWGQGTQVTVSS	high polyreactivity
QVQLVESGGGLVQAGGSLRLSCAASGSTIGRYAMGWYRQAPGKERELVAAISSSGDRTYYADSVKGRFTISRDNAKNTVYLQMNSLKPEDTAVYYCNSRRLFSGYDYWGQGTQVTVSS	high polyreactivity
QVQLEESGGGLVQEGGSLRLICAASGSTFYVYARGWYRQAPGKERELVAAITGSTGSTYYADSVKGRFTISRDNAKNTVELQMNSLKTEVTAFYYCDADFYGVPIIYDYWRQGTQVTVSS	low polyreactivity
QVQLVESGGGLVQAGGSLRLSCAASGFTFDGYAMGWYRQAPGKERELVAAITRRGGRTYYADSVKGRFTISRDNAKNTVYLQMNSLKPEDTAVYFCAAERYGDRFYGAYDYWGQGTQVTVSS	high polyreactivity
QVQLVESGGGLVQAGGSLRLSCAASGRTLSFYTMGWYRQAPGKERELVAAISSRTGSTYYADSVKGRFTISRDNAKNTVYLQMNRLKPEDTAVYYCAAASRAFAGSGHYYWGQGTQVTVSS	high polyreactivity
QVQLLESGGGLVQAGGSLRLSCAASGSTFDIYTMGWYRQAPGKERELVAAISRSGTRTYYADSVKGRFTISRDNAKNTVYLQMNSLKPEDTAVYYCNAVQQYYGTWGYGYWGQGTQVTVSS	high polyreactivity
QDQLVESGGGLLQAGGSLRLSCAASGSTIGYYAMGWYRQAPGKERELVAAINSGDSTSYADSVKGRFTISRDNAKNTVYLQMNSLKPEDTAVYYCAVRPRRHQYGYWGQGTQVTVSS	low polyreactivity
QVQLVESGGGLVQAGGSLRLSCAASGNTFTYYALGWYRQAPGTEREVVASISSGGSTNYADSVKGRFTISRDNAKNTVYLQMNRLKPEDTAVYYCARGWSFSTRRFQHTRYYYWGQGTQVTVSS	high polyreactivity
QVQLVESGGGLVQAGGSLRLSCAASGRIYTYYTMGWYRQAPGKERELVAAITVRGGRTYYADSVKGRFTISRDNAKNTDYLQMNSLKPEDTAVYYCAARGLVRSYDYWGQVTQVTVSS	high polyreactivity
QVQHVESGGGLVQAGGSLRLSCAASGSIFLVYAMGWYRLAPGKERELVAAISNSGSTNYADSVKGRFTISRDNAKNTVYLQMNSLKPEDTAVYYCAKDSLVDHVGGYDYWGHGTQVTVSS	low polyreactivity
QVQLVESGGGLVQAGGSLSLSCAASGSIFWYYAMGWYRPAPGKERELVATIDVSAGSTYADSVKGRFTIARDNAKNTVYLQMNSLKPEDTAVYDCNADHYPGEVFYVSSTRYEREYWGQGTQVTVSS	low polyreactivity
QVQLVESGGGLVQAGGSLRLSCAASGLIFSRYAMGWYRQAPGKERELVAVISWSGGRTYYSDSVKGRFTISRDNAKNTVYLQMNSLQPEDTAVYYCAADYKSGGSRYDYWGQGTQVTVSS	high polyreactivity
QVQLVESGGGLVQAGGSLRLSCAASGFTFTKNAMGWYRQAPGKERELVAAISRGGRTYYADSVKGRFTISRDNAKNTVYLQMNSLKPEDTADYYCAKGYASQILVAPRSQYYYWGQGTQVTVSS	high polyreactivity
QVQLVESGGGLVQAGGSLRLSCAASGSTFLVYAMGWYRQAPGKEMEFVAAISWSGGSTFYADSVKGRFTISRDNAKNTVYLQMNSLKPVDTAVYYCAARQAGYSGRKLYYWGQGTQVTVSS	low polyreactivity
QVQLVESRGVLVQAGGSLRLSCAASGSIFEWYAMGWYRQAPGKERELVAVISDGSTNYADSVKGRFTISRDNAKKTVYLQMNSLKPEDPAVSYCAADPFDGYSSSEYDYWGQGTQVTVSS	low polyreactivity
QVQLEESGGGLVQAGGSLPLSCAASGVIFGYYAMGWYIQAPGKERELVAAISKSGGSTYYADSVKARFTISRDNAKNTVYVQMNSLIPEDTAVYDCNADPRTASDQLEFDYWGQGTQVNVSS	low polyreactivity
QVQLVESGGGLVQAGGSLRLSCAASGRIFWTNAMGWYRQEPGKERELVAAISYNGASTFYADSVKGRFTISLDNAKNTVNLQMNSLKPEDTAVYSCNAYSSRYRYNYWGQGTQVTVSS	high polyreactivity
QVQLVESGVGLVQAGGSLRLSCAASGFTFYPYAMGWYRQAPGKERELVASITNGGSTNYADSVKGRFTISRDNAKNTVYLQMNSLKPEDTAVYYCTAAYGFYASRYWYASYDYWGQGTQVTVSS	low polyreactivity
QVQLVESGGGLVQAGGSLRLSCAASGSIFRTYAMGWYRQAPGKERELVATITFGGVSTYYADSVKGRFTISRDNAKITVYLQMNSLKPEDTAVYYCAADVYTRFWRVYRFDYWGQGTQVTVSS	low polyreactivity
QVQLVESGGGLVQAGCSLRLSCAASGRTFYYNAMGWYRQAPGKERELVAAITRSGSSTYYADSVKGRFTISRDNAKNTVYLQMNSLKPEDTAVYYCAARVGDAYYYWGQGTQVTVSS	high polyreactivity
QVQLQESGSGLVQAGGSLRLSCAASGAIFPANLMGWYRQAPGKERELVAGISYGSITYCADSVKGRFNISRDNAKNTVYLQMNSLKPEDTAVYYCAVWRPGGDEYYYWGQGTQVTVSS	low polyreactivity

Sequence	polyreactivity (PSR sort gate)
QVQLVESGGGLVQAGGSLRLSCAASGRTFHIYAMGWYRQAPGKERELVAAIRGRSGSTYYADSVKGRFTISRDNAKNTVYLQMNSLKPEDTAVYYCAVGRYPYGSARYRFDYWGQGTQVTVSS	high polyreactivity
QVQLVESGGGLVQAGGSLRLSCAASGSIFDLNAMGWYRQAPGKERELGAAISSGGGTYYADSVKGRFTISRDNAKNTVYLQMNSLKPEDTAVYYCNRVTSWTYNYWGQGTQVTVSS	high polyreactivity
QVQLVESGGGLVQAGGSLRLSCAASGSTFTINVMGWYRQAPGKERELVAAINGGGRTNYADYVKGRFTISRDNAKNTVYLQMNSLKPEDTAVYYCAADCYTYWFYQLIPDYDYWGQGTQVTVSS	low polyreactivity
QVQLVESGGGLVQAGGSLRLSCAASGFIFTSYARGWYRQAPGKDRELVAAITRSGASTSYADSVKGRFTISRDNAKNTVYLQMNSLKPEDTAVYYCAAKAPLPRYYVPRYDYWGQGTQVTVSS	high polyreactivity
QVQLVESGGGLVQAGGSLRLSCAASGSIYTWYAMVWYRQAPGKERELVAAITRGGSTYADSVKGRFTISRDNAKNTVFLQMNSLKPEDTAVYYCATDLQPRSFLYWYNYWGQGTQVTVSS	low polyreactivity
QVQLVESGGGLVQAGGSLRLSCAASGFTFWYYAMGWYRQAPGKERELVAAISSNGASTYYADSVKGRFTISRDNAKNTVYLQMNSLKPEDTAVYYCNAYYDTWDSAYDYDYWGQGTQVTVSS	low polyreactivity
QVQLVESVGGLVQAGGSLRLSCDASGSTFTSYTMGWYRPAPGKERELVAAISRSDGDRTYYADSVKGRFTISRDNAKNTVYLQMNSLKPEDTAVYYCAAEVTPRIVRYYYWGQGTQVTVSS	high polyreactivity
QVQLVESGGGLVQAGGSLRLSSAASGSIFGDYAMGWYRQSPGKERELVAAISSDGSTNYADSVKGRFTISRDNAKNTVYLQMNSLKPEDTAVYYCAADTGGWYFYSYYYWGQGTQVTVSS	low polyreactivity
QVQLVESGGGLVQAGGSLRLSCAASGLTFRYYAMGWYRQAPGKERELVATITGSGGSTYYADSVKGRFTISRDNAKNTVYFQMNSLNPEYTAVYYCAATVRVYDYWGQGTQVNVSS	high polyreactivity
QVQLVESGGGLDQARGSLRLSCAASGSTFKSYVMGWYRQAPGKVRELVAAISQSGGNTNYADSVKGRFTISRDNAKNTVYLQMNSLKPEDTAVDYCAADVLGTTTTVGGFNYWGQGTQVTVSS	low polyreactivity
QVQLVESGGGLVQAGGSLRLSCAAYGLTFCLNAMGWYRQAPGKERYLVAAIRYSGGGTYADSVKGRFTISRDNAMNTVYLQMISLKPEDTAVYYCAALYYLGYPQFDYWGQGTQVTVSS	low polyreactivity
QVQLVESGGGIVQAGGSLRLSCAASGSIVGQYAMGWYRQPPGKERELVAAITSGGRTNYADSVTGRFTISRDNAKNTVYVQMNRLKPEDTAVYYCAARGWVWYYWGQGTQVTVSS	high polyreactivity
QVQLVESGGGLVQAGGSLRLSCAASGYIFSLNGMGWYRQAPGKVRELVAAITVSGGRTYYADSVKGRFTISRDNAKNTVYLQMNSLKPEDTAVYYCAKRGKYSYWPYYKYDYWGQGTQVTVSS	high polyreactivity
QVQLVESGGGLVQAGGSLRLSCAASGLIFEGYAMGWYRQAPGKERELVAAISSAGSTYYADSVKGRFTISRDNAKNTVYLQMNSLKPEDTAVYYCNARRRRLVSYYYWGQGTQVTVSS	high polyreactivity
QVQLVESGGGLVQAGGSLRLSCAASGLILVPNTMGWYRQAPGKERELVAAISYSGGGTYYADSVKGRFTISRDNAKNTVYLQMNSLKPEDTAVYYCAADFYQSHFYRPRYDYWGQGTQVTVSS	low polyreactivity
QVQLVESGGGLVQAGGSLRLSCAASGSTFLPYAMGWYRQAPGKERELVAAIDWNGGRTYYADSVKGRFTISRDNAKNTVYLQMNSLKPEDTAVYYCAKLGRAAQGNYYWGQGTQVTVSS	high polyreactivity
QVHLVESGGGLVQAGGSLRLSCPASGSTFYDNAMGCYRQPPGKERELVARIRWSGVRTYYADSVKGRFTISRDNAKNTVYLQMNSLKPEDTAVYYCAAGRPSRHWWSLDYYFWGQGTQVTVSS	low polyreactivity
QVQLVESGGGLVQAGGSLRLSCAASGFTFSDNAMGWYRQAPGKDRELVAAISRSGGNTHYADSVKGRFTISRDNAKNTVYFQMNSLKPEDTAVYYCAARVQGRGYGYYYWGQGTQVSVSS	high polyreactivity
QVQLVESGGGLVQAGGSLRLSCAASGFTFRSYAMGWYRQAPGKERELVAAISSGGSTYYADSVKGRFTISRDNAKNTVYLQMNSLKPEDTAVYYCAARRYYGYGHWGQGTQVNVSS	high polyreactivity
QVQLVESGGGLVQAGGSLRLSCAASGRIFNPNAMGWYRQAHGKESELVAAISGSGGSTYYADSVKGRFTISRDNAKNTVNLQMNSLKPEDTAVYYCNKLLSQRRYHSEMDYWGQGTQVTVSS	high polyreactivity
QVQLVESGGRLVQAGGSLRLSCAASGRIFNHYAMGWYRQAPGKERELVAAIDRSGGSTYYADSVKGRFTISRDNAKNTVYFQMNSLKPEDTAVYYCNARRIIAKYGYWGQGTQVTVSS	high polyreactivity
